Laboratory results from patent US20250346660A1 (PARAGON THERAPEUTICS, published 2025).
Residue numbers refer to the chain shown, from its start.

T1: Recombinant Human IL-23 (human, UniProt Q9NPF7 20-189; P29460 23-328)
T1 sequence (looked up) 1: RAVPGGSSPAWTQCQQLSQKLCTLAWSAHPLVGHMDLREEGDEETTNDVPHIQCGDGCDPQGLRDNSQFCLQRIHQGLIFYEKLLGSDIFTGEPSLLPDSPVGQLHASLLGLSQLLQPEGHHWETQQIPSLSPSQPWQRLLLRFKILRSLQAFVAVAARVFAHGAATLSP
T1 sequence (looked up) 2: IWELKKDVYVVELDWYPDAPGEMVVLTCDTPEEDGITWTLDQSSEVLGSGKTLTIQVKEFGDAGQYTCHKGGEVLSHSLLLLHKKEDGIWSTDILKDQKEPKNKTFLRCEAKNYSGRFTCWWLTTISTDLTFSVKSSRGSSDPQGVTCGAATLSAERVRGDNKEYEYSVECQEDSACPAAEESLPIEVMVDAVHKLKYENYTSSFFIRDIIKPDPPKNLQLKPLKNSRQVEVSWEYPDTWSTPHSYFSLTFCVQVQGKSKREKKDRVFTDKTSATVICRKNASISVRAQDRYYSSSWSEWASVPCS

B1: Reference Antibody 1 (antibody, human IgG1, kappa, L234A L235A, V domains shown)
VH: QVQLVQSGAEVKKPGSSVKVSCKASGYTFTDQTIHWMRQAPGQGLEWIGYIYPRDDSPKYNENFKGKVTITADKSTSTAYMELSSLRSEDTAVYYCAIPDRSGYAWFIYWGQGTLVTVSS
VL: DIQMTQSPSSLSASVGDRVTITCKASRDVAIAVAWYQQKPGKVPKLLIYWASTRHTGVPSRFSGSGSRTDFTLTISSLQPEDVADYFCHQYSSYPFTFGSGTKLEIKR
notes: also called anti-human IL-23p19 antibody; parental antibody
B2: IL-23 antibody clone 107 (antibody, human IgG1, kappa, L234A L235A, V domains shown)
VH: B1 VH with D31A, S57T, E62P, I108D
VL: B1 VL
B3: IL-23 antibody clone 202 (antibody, human IgG1, kappa, L234A L235A, V domains shown)
VH: EVQLLESGGGLVQPGGSLRLSCAASGYTFTDQTIHWVRQAPGKGLEWIGYIYPRDDSPKYNENFKGRATLSADKSKNTAYLQMNSLRAEDTAVYYCAIPDRSGYAWFIYWGQGTTVTVSS
VL: EIVMTQSPATLSVSPGERATLSCKASRDVAIAVAWYQQKPGQAPRLLLYWASTRHTGIPARFSGSGSRTEFTLTISSLQSEDFAVYYCHQYSSYPFTFGGGTKVEIKR
notes: Full antibody format
B4: IL-23 antibody clone 203 (antibody, human IgG1, kappa, L234A L235A, V domains shown)
VH: B3 VH
VL: B3 VL with Y49F
notes: Full antibody format

Target: T1, Recombinant Human IL-23
Assay: cell-based or functional assay

Relative IC50, inhibition of IL-23-induced phosphorylation of STAT3 in DB cells (pSTAT3 sandwich ELISA) | Binder
1 relative to Reference Antibody 1 | B1
0.51 relative to Reference Antibody 1 | B2

Target: T1, Recombinant Human IL-23
Assay: SPR (Biacore 8K), mAb captured on anti-human IgG, human IL-23 as analyte, 25 C, 1:1 model; below the limit of detection
Experimental: (§1) Reference Antibody 1 was used as a comparator. […] Anti-IL23 mAb constructs (diluted to 2 μg/mL) were captured onto flow cell 2 (active) for 60 sec at a flow rate of 10 μL/min. Recombinant Human IL-23 was prepared at concentrations of 0, 1.23, 3.7, 11.11, 33.33, 100 nM and injected over flow cell 1 (reference) and flow cell 2 (active) for 180 sec at a flow rate of 50 μL/min. Samples were injected in a multi-cycle manner over freshly captured mAb, by regenerating the capture surfaces with injection of 10 mM glycine, pH 1.5 for 30 sec at a flow rate of 30 μL/min. A 1:1 kinetic binding model was utilized to determine the apparent association (kₐ) and dissociation […] rate constants. Their ratio provides the apparent equilibrium dissociation constant or affinity constant ([…]).

koff [s⁻¹] | Binder
< 1e-06 | B1
< 1e-06 | B2
< 1e-06 | B3
< 1e-06 | B4

Target: T1, Recombinant Human IL-23
Assay: cell-based or functional assay
Remark: another data set of the same source

Relative IC50, inhibition of IL-23-induced activation of STAT3 (luciferase reporter, HEK 293F IL-23R+/IL-12Rb1+ cells) | Binder
1 relative to Reference Antibody 1 | B1
0.57 relative to Reference Antibody 1 | B2
0.76 relative to Reference Antibody 1 | B3
0.66 relative to Reference Antibody 1 | B4

Target: T1, Recombinant Human IL-23
Assay: SPR (Biacore 8K), mAb captured on goat anti-human IgG CM5 chip, human IL-23 as analyte, 25 C, 1:1 model
Experimental: as §1

Kd [pM] | Binder
< 6 | B4

Target: T1, Recombinant Human IL-23
Assay: SPR (Biacore 8K), mAb captured on anti-human IgG, human IL-23 as analyte, 25 C, 1:1 model
Experimental: as §1

kon [M⁻¹ s⁻¹] | Binder
167000 | B1
187000 | B2
210000 | B3
271000 | B4

Target: T1, Recombinant Human IL-23
Assay: cell-based or functional assay
Remark: another data set of the same source

Relative IC50, inhibition of IL-23-induced release of IL-17 from human PBMCs | Binder
1 relative to Reference Antibody 1 | B1
0.67 relative to Reference Antibody 1 | B2
0.79 relative to Reference Antibody 1 | B3
0.78 relative to Reference Antibody 1 | B4
